What was measured:
mouse TREM2 on BWZ cells [1] = biological target: T1, mouse TREM2 on BWZ cells (mouse, UniProt Q99NH8 19-227); assay: FACS, BWZ mouse TREM2
T1 construct: whole, on cells; also called BWZ Mouse TREM2
T1 sequence (looked up): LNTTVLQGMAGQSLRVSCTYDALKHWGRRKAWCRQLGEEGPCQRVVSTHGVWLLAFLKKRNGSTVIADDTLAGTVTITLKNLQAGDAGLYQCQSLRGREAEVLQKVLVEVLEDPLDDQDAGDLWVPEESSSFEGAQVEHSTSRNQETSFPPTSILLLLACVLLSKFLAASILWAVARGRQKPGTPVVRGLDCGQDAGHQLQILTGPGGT

mouse TREM1 on CHO cells = biological target: T2, mouse TREM1 on CHO cells (mouse, UniProt Q9JKE2 21-230); assay: FACS, CHO mouse TREM1
T2 construct: also called CHO-mT1
T2 sequence: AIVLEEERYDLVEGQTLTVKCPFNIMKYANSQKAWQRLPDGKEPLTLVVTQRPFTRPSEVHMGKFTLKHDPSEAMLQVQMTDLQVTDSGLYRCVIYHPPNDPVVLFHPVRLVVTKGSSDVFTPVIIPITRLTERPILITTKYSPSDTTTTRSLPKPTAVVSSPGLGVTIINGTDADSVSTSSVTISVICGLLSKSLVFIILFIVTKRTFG

human TREM2 on BWZ cells [2] = biological target: T3, human TREM2 on BWZ cells (human, UniProt Q9NZC2 19-230); assay: FACS, BWZ cells
T3 construct: whole, on cells; not tied to the cell line; also called BWZ Human TREM2
T3 sequence (looked up): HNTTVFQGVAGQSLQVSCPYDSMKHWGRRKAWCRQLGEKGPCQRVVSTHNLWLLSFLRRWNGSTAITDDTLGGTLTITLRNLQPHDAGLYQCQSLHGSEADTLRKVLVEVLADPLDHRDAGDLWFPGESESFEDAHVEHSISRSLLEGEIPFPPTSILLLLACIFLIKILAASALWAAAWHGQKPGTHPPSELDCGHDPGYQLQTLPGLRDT

mouse TREM2 on BWZ cells [3] = biological target: T1, mouse TREM2 on BWZ cells; assay: FACS, BWZ cells
human TREM2 on BWZ cells [4] = biological target: T3, human TREM2 on BWZ cells; assay: FACS, BWZ human TREM2

Binder	FOB Fold Over Background (mouse TREM2 on BWZ cells [1]) [fold]	FOB Fold Over Background (mouse TREM1 on CHO cells) [fold]	binding result (human TREM2 on BWZ cells [2])	binding result (mouse TREM2 on BWZ cells [3])	FOB Fold Over Background (human TREM2 on BWZ cells [4]) [fold]
T1-31 (antibody, IgG1, V domains shown, huIgG1; also called TI-31) VH: QLQLQESGPGLVKPSETLSLTCTVSGGSISSSSYYWGWIRQPPGKGLEWIGSIYYSGSTYYNPSLKSRVTISVDTSKNQFSLKLSSVTAADTAVYYCARDRRMWDPYGMDVWGQGTTVTVSS VL: DIQMTQSPSSLSASVGDRVTITCQASQDISNYLNWYQQKPGKAPKLLIYDASNLETGVPSRFSGSGSGTDFTFTISSLQPEDIATYYCQQYDDFPPITFGGGTKVEIK	0.9	447	no binding	no binding	0.5
T1-28 (antibody, IgG1, V domains shown, huIgG1; also called TI-28) VH: EVQLVESGGGLVKPGGSLRLSCAASGFTFSSYSMNWVRQAPGKGLEWVSSISSSSNYIYYADSVKGRFTISRDNAKNSLYLQMNSLRAEDTAVYYCARGPSQYYYDSSAIEAFDIWGQGTMVTVSS VL: EIVLTQSPATLSVSPGERATLSCRASQSVGSNLAWYQQKPGQAPRLLIYGASTRATGIPARFSGSGSGTEFTLTISSLQSEDFAVYYCQQYLYFPLTFGGGTKVEIK	1.1	408	no binding	no binding	0.6
T1-29 (antibody, IgG1, V domains shown, huIgG1; also called TI-29) VH: QLQLQESGPGLVKPSETLSLTCTVSGGSISSSSYYWGWIRQPPGKGLEWIGSIYYSGSTYYNPSLKSRVTISVDTSKNQFSLKLSSVTAADTAVYYCARDGGGTAQADGAYYYGMDVWGQGTTVTVSS VL: EIVLTQSPATLSLSPGERATLSCRASQSVSSYLAWYQQKPGQAPRLLIYDASNRATGIPARFSGSGSGTDFTLTISSLEPEDFAVYYCQQGVNYPFTFGGGTKVEIK	1.2	401	no binding	no binding	0.7
T1-27 (antibody, IgG1, V domains shown, huIgG1; also called TI-27) VH: QVQLQESGPGLVKPSQTLSLTCTVSGGSISSGGYYWSWIRQHPGKGLEWIGYIYYSGSTYYNPSLKSRVTISVDTSKNQFSLKLSSVTAADTAVYYCARDSSIAGRATLSFDYWGQGTLVTVSS VL: DIQMTQSPSSLSASVGDRVTITCRASQSISSYLNWYQQKPGKAPKLLIYAASSLQSGVPSRFSGSGSGTDFTLTISSLQPEDFATYYCQQSFYDPITFGGGTKVEIK	1.2	523	no binding	no binding	0.8
T1-32 (antibody, IgG1, V domains shown, huIgG1; also called TI-32) VH: QLQLQESGPGLVKPSETLSLTCTVSGGSISSSSYYWGWIRQPPGKGLEWIGSIYYSGSTYYNPSLKSRVTISVDTSKNQFSLKLSSVTAADTAVYYCARDAPAVVGESPAFDIWGQGTMVTVSS VL: DIQMTQSPSSLSASVGDRVTITCRASQSISRYLNWYQQKPGKAPKLLIYAASSLQSGVPSRFSGSGSGTDFTLTISSLQPEDFATYYCQQSLDLPFTFGGGTKVEIK	1.2	380	no binding	no binding	0.9
T1-30 (antibody, IgG1, V domains shown, huIgG1; also called TI-30) VH: QLQLQESGPGLVKPSETLSLTCTVSGGSISSSSYYWGWIRQPPGKGLEWIGSIYYSGSTYYNPSLKSRVTISVDTSKNQFSLKLSSVTAADTAVYYCARGRKAAAGIDEAEYFQHWGQGTLVTVSS VL: DIQMTQSPSSVSASVGDRVTITCRASQGISSWLAWYQQKPGKAPKLLIYAASSLQSGVPSRFSGSGSGTDFTLTISSLQPEDFATYYCQQVISFPTFGGGTKVEIK	0.8	453	no binding	no binding	0.5

Source: US11472877 (Alector, dated 2022)
